{"source": "paper PMC9352680", "about": "“A comprehensive thermodynamic model for RNA binding by the Saccharomyces cerevisiae Pumilio protein PUF4”", "data": [{"target": "T1, PUF4 RNA-binding domain (Saccharomyces cerevisiae, UniProt P25339 537-888)", "T1 sequence": "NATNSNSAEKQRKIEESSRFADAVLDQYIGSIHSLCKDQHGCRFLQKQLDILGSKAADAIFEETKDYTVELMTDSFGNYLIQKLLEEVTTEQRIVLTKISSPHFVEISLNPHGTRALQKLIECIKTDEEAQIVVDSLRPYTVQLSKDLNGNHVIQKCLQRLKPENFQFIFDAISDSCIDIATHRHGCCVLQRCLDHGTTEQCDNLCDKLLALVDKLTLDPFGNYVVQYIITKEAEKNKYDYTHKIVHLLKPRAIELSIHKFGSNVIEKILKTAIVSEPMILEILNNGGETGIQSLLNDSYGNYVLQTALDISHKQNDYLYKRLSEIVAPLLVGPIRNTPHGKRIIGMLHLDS", "test": "Mg; RNA-MaP; 20 mM Na-HEPES pH 7.4, 30 mM KOAc, 0.75 mM MgCl2, 0.1% Tween-20, 5% glycerol, 0.1 mg/mL BSA, 2 mM DTT; 25 C; 0.0125-409.6 nM protein", "details": "tags: N-His6-TEV cleaved; C-SNAP kept, Cy3B-labelled; label: tethered on chip by stalled RNA polymerase", "units": {"Kd": "nM"}, "values": [{"binder": "UCUCUUUGUACCCGAUUCUCUU (ssRNA)", "note": "[Ic_S1_P5E.1_K5.1_C5.1_H5.1_A5.1_[T5C]_[T6C]_[A7C]_F5.1_[T8G]_[T9A]_[A10T]_T5.1]", "Kd": 1050}, {"binder": "UCUCUUUGUAAGCACUUCUCUU (ssRNA)", "note": "[Ic_S1_P5E.1_K5.1_C5.1_H5.1_A5.1_[T5A]_[T6G]_[A7C]_F5.1_[T8A]_[T9C]_[A10T]_T5.1]", "Kd": "> 2300"}, {"binder": "UCUCUUUGUAACCUCGUCUCUU (ssRNA)", "note": "[Ic_S1_P5E.1_K5.1_C5.1_H5.1_A5.1_[T5A]_[T6C]_[A7C]_F5.1_[T9C]_[A10G]_T5.1]", "Kd": 123}, {"binder": "UCUCUUUGUAAUUACGUCUCUU (ssRNA)", "note": "[Ic_S1_P5E.1_K5.1_C5.1_H5.1_A5.1_[T5A]_[A7T]_F5.1_[T8A]_[T9C]_[A10G]_T5.1]", "Kd": 613}, {"binder": "UCUCUUUCUGUAUAUCUCUU (ssRNA)", "note": "[Ib_S1_P3E.1_K3.1_C3.1_H3.1_[G2C]_[A4G]_A3.1_F3.1_T3.1]", "Kd": 27.6}, {"binder": "UCUCUUUGUACCACCCUCUCUU (ssRNA)", "note": "[Ic_S1_P5E.1_K5.1_C5.1_H5.1_A5.1_[T5C]_[T6C]_F5.1_[T8C]_[T9C]_[A10C]_T5.1]", "Kd": 523}, {"binder": "UCUCUUUGUAAUGCUUUCUCUU (ssRNA)", "note": "[Ic_S1_P5E.1_K5.1_C5.1_H5.1_A5.1_[T5A]_[A7G]_F5.1_[T8C]_[A10T]_T5.1]", "Kd": 181}, {"binder": "UCUCUUUGUAGCAUAGUCUCUU (ssRNA)", "note": "[Ic_S1_P5E.1_K5.1_C5.1_H5.1_A5.1_[T5G]_[T6C]_F5.1_[T9A]_[A10G]_T5.1]", "Kd": 9.57}, {"binder": "UCUCUUUGUACCCGCGUCUCUU (ssRNA)", "note": "[Ic_S1_P5E.1_K5.1_C5.1_H5.1_A5.1_[T5C]_[T6C]_[A7C]_F5.1_[T8G]_[T9C]_[A10G]_T5.1]", "Kd": "> 2300"}, {"binder": "UCUCUUUGUAUACUAGUCUCUU (ssRNA)", "note": "[Ic_S1_P5E.1_K5.1_C5.1_H5.1_A5.1_[T6A]_[A7C]_F5.1_[T9A]_[A10G]_T5.1]", "Kd": 0.331}, {"binder": "UCUCUUUGUACGCCCCUCUCUU (ssRNA)", "note": "[Ic_S1_P5E.1_K5.1_C5.1_H5.1_A5.1_[T5C]_[T6G]_[A7C]_F5.1_[T8C]_[T9C]_[A10C]_T5.1]", "Kd": 662}, {"binder": "UCUCUUUGUAUGUUCCUCUCUU (ssRNA)", "note": "[Ic_S1_P5E.1_K5.1_C5.1_H5.1_A5.1_[T6G]_[A7T]_F5.1_[T9C]_[A10C]_T5.1]", "Kd": 28.6}, {"binder": "UCUCUUUGUACAUACGUCUCUU (ssRNA)", "note": "[Ic_S1_P5E.1_K5.1_C5.1_H5.1_A5.1_[T5C]_[T6A]_[A7T]_F5.1_[T8A]_[T9C]_[A10G]_T5.1]", "Kd": 11}, {"binder": "UCUCUUUGUACACCGAUCUCUU (ssRNA)", "note": "[Ic_S1_P5E.1_K5.1_C5.1_H5.1_A5.1_[T5C]_[T6A]_[A7C]_F5.1_[T8C]_[T9G]_T5.1]", "Kd": 425}, {"binder": "UCUCUUUUAAUAUAUCUCUU (ssRNA)", "note": "[Ib_S1_P3E.1_K3.1_C3.1_H3.1_[G2T]_[T3A]_A3.1_F3.1_T3.1]", "Kd": "> 2300"}, {"binder": "UCUCUUUGUACAAUAAUCUCUU (ssRNA)", "note": "[Ic_S1_P5E.1_K5.1_C5.1_H5.1_A5.1_[T5C]_[T6A]_F5.1_[T9A]_T5.1]", "Kd": 1.94}, {"binder": "UCUCUUUGUACGAAUUUCUCUU (ssRNA)", "note": "[Ic_S1_P5E.1_K5.1_C5.1_H5.1_A5.1_[T5C]_[T6G]_F5.1_[T8A]_[A10T]_T5.1]", "Kd": 693}, {"binder": "UCUCUUUGUAACCAUGUCUCUU (ssRNA)", "note": "[Ic_S1_P5E.1_K5.1_C5.1_H5.1_A5.1_[T5A]_[T6C]_[A7C]_F5.1_[T8A]_[A10G]_T5.1]", "Kd": 481}, {"binder": "UCUCUUUGUAUGACCAUCUCUU (ssRNA)", "note": "[Ic_S1_P5E.1_K5.1_C5.1_H5.1_A5.1_[T6G]_F5.1_[T8C]_[T9C]_T5.1]", "Kd": 1110}, {"binder": "UCUCUUUGUACUGCGCUCUCUU (ssRNA)", "note": "[Ic_S1_P5E.1_K5.1_C5.1_H5.1_A5.1_[T5C]_[A7G]_F5.1_[T8C]_[T9G]_[A10C]_T5.1]", "Kd": 1380}, {"binder": "UCUCUUUGUAAAGCUCUCUCUU (ssRNA)", "note": "[Ic_S1_P5E.1_K5.1_C5.1_H5.1_A5.1_[T5A]_[T6A]_[A7G]_F5.1_[T8C]_[A10C]_T5.1]", "Kd": 1270}, {"binder": "UCUCUUUGUAUACACUUCUCUU (ssRNA)", "note": "[Ic_S1_P5E.1_K5.1_C5.1_H5.1_A5.1_[T6A]_[A7C]_F5.1_[T8A]_[T9C]_[A10T]_T5.1]", "Kd": 69.2}, {"binder": "UCUCUUUGUAAUAAUUUCUCUU (ssRNA)", "note": "[Ic_S1_P5E.1_K5.1_C5.1_H5.1_A5.1_[T5A]_F5.1_[T8A]_[A10T]_T5.1]", "Kd": 324}, {"binder": "UCUCUUUGUACUACCCUCUCUU (ssRNA)", "note": "[Ic_S1_P5E.1_K5.1_C5.1_H5.1_A5.1_[T5C]_F5.1_[T8C]_[T9C]_[A10C]_T5.1]", "Kd": 656}, {"binder": "UCUCUUUGUACGCGUCUCUCUU (ssRNA)", "note": "[Ic_S1_P5E.1_K5.1_C5.1_H5.1_A5.1_[T5C]_[T6G]_[A7C]_F5.1_[T8G]_[A10C]_T5.1]", "Kd": 1980}, {"binder": "UCUCUUUGUAUAAUGGUCUCUU (ssRNA)", "note": "[Ic_S1_P5E.1_K5.1_C5.1_H5.1_A5.1_[T6A]_F5.1_[T9G]_[A10G]_T5.1]", "Kd": 8.53}, {"binder": "UCUCUUUGUAAUCUCUUCUCUU (ssRNA)", "note": "[Ic_S1_P5E.1_K5.1_C5.1_H5.1_A5.1_[T5A]_[A7C]_F5.1_[T9C]_[A10T]_T5.1]", "Kd": 440}, {"binder": "UCUCUUUGUAAAAUUGUCUCUU (ssRNA)", "note": "[Ic_S1_P5E.1_K5.1_C5.1_H5.1_A5.1_[T5A]_[T6A]_F5.1_[A10G]_T5.1]", "Kd": 22.4}, {"binder": "UCUCUUUGUAUAACAUUCUCUU (ssRNA)", "note": "[Ic_S1_P5E.1_K5.1_C5.1_H5.1_A5.1_[T6A]_F5.1_[T8C]_[T9A]_[A10T]_T5.1]", "Kd": 12.6}, {"binder": "UCUCUUUGUAAACAACUCUCUU (ssRNA)", "note": "[Ic_S1_P5E.1_K5.1_C5.1_H5.1_A5.1_[T5A]_[T6A]_[A7C]_F5.1_[T8A]_[T9A]_[A10C]_T5.1]", "Kd": 88.4}, {"binder": "UCUCUUUGUAGUCUAAUCUCUU (ssRNA)", "note": "[Ic_S1_P5E.1_K5.1_C5.1_H5.1_A5.1_[T5G]_[A7C]_F5.1_[T9A]_T5.1]", "Kd": 36}, {"binder": "UCUCUUUGUAAAGCCAUCUCUU (ssRNA)", "note": "[Ic_S1_P5E.1_K5.1_C5.1_H5.1_A5.1_[T5A]_[T6A]_[A7G]_F5.1_[T8C]_[T9C]_T5.1]", "Kd": 1060}]}]}
